Source: US20150087552A1

Legend:
[1] = target: Kv2.1 R300S (on the hKv2.1-m7-c3 base construct) (human) (UniProt Q14721); experiment: cell-based or functional assay
[2] = target: Kv2.1 "wild-type" base construct hKv2.1-m7-c3 (human Kv2.1, residues 1-858, mutated to confer AgTx2 (human) (UniProt Q14721)); experiment: cell-based or functional assay

Sequence of AgTx2 (Agitotoxin-2 / agitoxin 2, scorpion toxin) (P46111 whole entry): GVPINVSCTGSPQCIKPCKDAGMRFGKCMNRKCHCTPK

AgTx2 (Agitotoxin-2 / agitoxin 2, scorpion toxin) (from UniProt P46111 1-38) (peptide)
mean inhibition of the maximal outward (alpha pore) current at +60 mV by 1 nM AgTx2, two-electrode voltage clamp, Xenopus oocytes [1]: 67.8% | mean inhibition of the maximal outward (alpha pore) current at +60 mV by 1 nM AgTx2, two-electrode voltage clamp, Xenopus oocytes [2]: 66.5%
